Measurements as given in article PMC5470993 (2017).

Biological target: Rac1 (Homo sapiens, UniProt P63000)
Assay: GST pull-down

B1: PAK1 RBD (protein)
chain: KKEKERPEISLPSDFEHTIHVGFDAVTGEFTGMPEQWARLLQTSNITKSEQKKNPQAVLDVLEFYNSKKTSNSQKYMSFTDKSA
- Kd: 243 nM
